In patent US20120316071A1:

What was measured:
[1] = target: rHuman ErbB2/Fc Chimera, CF (R&D Systems Cat#1129-ER) (human) (UniProt P04626); experiment: Multispot ECL (MSD), antigen spotted on plate, Fab 0.00391 uM; blank spot 576
[2] = target: rHuman P-Cadherin/Fc Chimera, CF (R&D Systems Cat#861-PC) (human) (UniProt P22223); experiment: as above
[3] = target: Recombinant Human DLL4 (R&D Systems Cat#1506-D4/CF) (human) (UniProt Q9NR61); experiment: as above
[4] = target: rHuman ErbB2/Fc Chimera, CF (R&D Systems Cat#1129-ER) (human) (UniProt P04626); experiment: Multispot ECL (MSD), antigen spotted on plate, Fab 0.0625 uM; blank spot 1738
[5] = target: rHuman P-Cadherin/Fc Chimera, CF (R&D Systems Cat#861-PC) (human) (UniProt P22223); experiment: as above
[6] = target: Recombinant Human DLL4 (R&D Systems Cat#1506-D4/CF) (human) (UniProt Q9NR61); experiment: as above
[7] = target: rHuman ErbB2/Fc Chimera, CF (R&D Systems Cat#1129-ER) (human) (UniProt P04626); experiment: Multispot ECL (MSD), antigen spotted on plate, Fab 0.01563 uM; blank spot 906
[8] = target: rHuman P-Cadherin/Fc Chimera, CF (R&D Systems Cat#861-PC) (human) (UniProt P22223); experiment: as above
[9] = target: Recombinant Human DLL4 (R&D Systems Cat#1506-D4/CF) (human) (UniProt Q9NR61); experiment: as above
[10] = target: rHuman ErbB2/Fc Chimera, CF (R&D Systems Cat#1129-ER) (human) (UniProt P04626); experiment: Multispot ECL (MSD), antigen spotted on plate, Fab […]; blank spot 6344
[11] = target: rHuman P-Cadherin/Fc Chimera, CF (R&D Systems Cat#861-PC) (human) (UniProt P22223); experiment: as above
[12] = target: Recombinant Human DLL4 (R&D Systems Cat#1506-D4/CF) (human) (UniProt Q9NR61); experiment: as above
[13] = target: rHuman IGF-1 sR, CF (R&D Systems Cat#391-GR) (human) (UniProt P08069); experiment: MSD multispot ECL, antigen spotted on plate; Fab 0.07438 uM; blank spot 2504
[14] = target: rHuman HGF R/c-MET/Fc Chimera, CF (R&D Systems Cat#358-MT/CF) (human) (UniProt P08581); experiment: as above
[15] = target: rHuman ErbB2/Fc Chimera, CF (R&D Systems Cat#1129-ER) (human) (UniProt P04626); experiment: as above
[16] = target: rHuman IGF-1 sR, CF (R&D Systems Cat#391-GR) (human) (UniProt P08069); experiment: MSD multispot ECL, antigen spotted on plate; Fab 0.2975 uM; blank spot 5019
[17] = target: rHuman HGF R/c-MET/Fc Chimera, CF (R&D Systems Cat#358-MT/CF) (human) (UniProt P08581); experiment: as above
[18] = target: rHuman ErbB2/Fc Chimera, CF (R&D Systems Cat#1129-ER) (human) (UniProt P04626); experiment: as above
[19] = target: rHuman IGF-1 sR, CF (R&D Systems Cat#391-GR) (human) (UniProt P08069); experiment: MSD multispot ECL, antigen spotted on plate; Fab 1.19 uM; blank spot 24999
[20] = target: rHuman HGF R/c-MET/Fc Chimera, CF (R&D Systems Cat#358-MT/CF) (human) (UniProt P08581); experiment: as above
[21] = target: rHuman ErbB2/Fc Chimera, CF (R&D Systems Cat#1129-ER) (human) (UniProt P04626); experiment: as above
[22] = target: rHuman IGF-1 sR, CF (R&D Systems Cat#391-GR) (human) (UniProt P08069); experiment: MSD multispot ECL, antigen spotted on plate; Fab 0.01859 uM; blank spot 1776
[23] = target: rHuman HGF R/c-MET/Fc Chimera, CF (R&D Systems Cat#358-MT/CF) (human) (UniProt P08581); experiment: as above
[24] = target: rHuman ErbB2/Fc Chimera, CF (R&D Systems Cat#1129-ER) (human) (UniProt P04626); experiment: as above
[25] = target: rHuman CD44/Fc Chimera, CF (R&D Systems Cat#3660-CD) (human) (UniProt P16070); experiment: ECL Multispot (MSD), antigen spotted, Fab
[26] = target: rHuman IGF-1 sR, CF (R&D Systems Cat#391-GR) (human) (UniProt P08069); experiment: ECL Multispot (MSD), antigen spotted, Fab
[27] = target: rHuman EGF R/Fc Chimera, CF (R&D Systems Cat#344-ER) (human) (UniProt P00533); experiment: ECL Multispot (MSD), antigen spotted, Fab
[28] = target: rHuman HGF R/c-MET/Fc Chimera, CF (R&D Systems Cat#358-MT/CF) (human) (UniProt P08581); experiment: ECL Multispot (MSD), antigen spotted, Fab
[29] = target: rHuman P-Cadherin/Fc Chimera, CF (R&D Systems Cat#861-PC) (human) (UniProt P22223); experiment: ECL Multispot (MSD), antigen spotted, Fab
[30] = target: rHuman Erythropoietin R/Fc Chimera, CF (R&D Systems Cat#963-ER) (human) (UniProt P19235); experiment: ECL Multispot (MSD), antigen spotted, Fab
[31] = target: Recombinant Human DLL4 (R&D Systems Cat#1506-D4/CF) (human) (UniProt Q9NR61); experiment: ECL Multispot (MSD), antigen spotted, Fab
[32] = target: rHuman Notch-1/Fc Chimera, CF (R&D Systems Cat#3647-TK) (human) (UniProt P46531); experiment: ECL Multispot (MSD), antigen spotted, Fab
[33] = target: rHuman CD44/Fc Chimera, CF (R&D Systems Cat#3660-CD) (human) (UniProt P16070); experiment: ECL multispot (MSD) assay, antigen spotted on plate, 20 nM Fab
[34] = target: rHuman IGF-1 sR, CF (R&D Systems Cat#391-GR) (human) (UniProt P08069); experiment: as above
[35] = target: rHuman EGF R/Fc Chimera, CF (R&D Systems Cat#344-ER) (human) (UniProt P00533); experiment: as above
[36] = target: rHuman P-Cadherin/Fc Chimera, CF (R&D Systems Cat#861-PC) (human) (UniProt P22223); experiment: as above
[37] = target: Recombinant Human DLL4 (R&D Systems Cat#1506-D4/CF) (human) (UniProt Q9NR61); experiment: as above
[38] = target: rHuman Notch-1/Fc Chimera, CF (R&D Systems Cat#3647-TK) (human) (UniProt P46531); experiment: as above
[39] = target: rHuman CD44/Fc Chimera, CF (R&D Systems Cat#3660-CD) (human) (UniProt P16070); experiment: ECL multispot (MSD), antigen spotted, Fab in solution
[40] = target: rHuman IGF-1 sR, CF (R&D Systems Cat#391-GR) (human) (UniProt P08069); experiment: as above
[41] = target: rHuman EGF R/Fc Chimera, CF (R&D Systems Cat#344-ER) (human) (UniProt P00533); experiment: as above
[42] = target: rHuman HGF R/c-MET/Fc Chimera, CF (R&D Systems Cat#358-MT/CF) (human) (UniProt P08581); experiment: as above
[43] = target: rHuman ErbB2/Fc Chimera, CF (R&D Systems Cat#1129-ER) (human) (UniProt P04626); experiment: as above
[44] = target: rHuman P-Cadherin/Fc Chimera, CF (R&D Systems Cat#861-PC) (human) (UniProt P22223); experiment: as above
[45] = target: rHuman Erythropoietin R/Fc Chimera, CF (R&D Systems Cat#963-ER) (human) (UniProt P19235); experiment: as above
[46] = target: Recombinant Human DLL4 (R&D Systems Cat#1506-D4/CF) (human) (UniProt Q9NR61); experiment: as above
[47] = target: rHuman Notch-1/Fc Chimera, CF (R&D Systems Cat#3647-TK) (human) (UniProt P46531); experiment: as above
[48] = target: rHuman ErbB2/Fc Chimera, CF (R&D Systems Cat#1129-ER) (human) (UniProt P04626); experiment: Multispot ECL (MSD) assay, antigen spotted on plate, Fab at […]; blank spot 751
[49] = target: rHuman ErbB2/Fc Chimera, CF (R&D Systems Cat#1129-ER) (human) (UniProt P04626); experiment: Multispot ECL (MSD) assay, antigen spotted on plate, Fab at 0.096 µM; blank spot 917
[50] = target: rHuman ErbB2/Fc Chimera, CF (R&D Systems Cat#1129-ER) (human) (UniProt P04626); experiment: Multispot ECL (MSD) assay, antigen spotted on plate, Fab at […]; blank spot 2945
[51] = target: rHuman ErbB2/Fc Chimera, CF (R&D Systems Cat#1129-ER) (human) (UniProt P04626); experiment: ECL Multispot (MSD), antigen spotted, Fab

Fab VH1-46_IGHD2-15*01_IGHJ2*01 & L2_IGKJ1*01
ECL signal [1]: 1670
ECL signal [2]: 1960
ECL signal [3]: 1550
ECL signal [4]: 9030
ECL signal [5]: 7740
ECL signal [6]: 8050
ECL signal [7]: 4500
ECL signal [8]: 4940
ECL signal [9]: 4020
ECL signal [10]: 29600
ECL signal [11]: 25500
ECL signal [12]: 27700

Fab VH1-46_IGHD6-13*01_IGHJ4*01 & L2_IGKJ1*01
ECL signal [13]: 5800
ECL signal [14]: 6610
ECL signal [15]: 7550
ECL signal [16]: 17400
ECL signal [17]: 17400
ECL signal [18]: 15100
ECL signal [19]: 35200
ECL signal [20]: 45500
ECL signal [21]: 38400
ECL signal [22]: 3780
ECL signal [23]: 4570
ECL signal [24]: 5530

Fab VH3-23_IGHD3-10*01>3_IGHJ6*01 Y112G & O12_IGKJ1*01
ECL signal/blank ratio [25]: 2.5
ECL signal/blank ratio [26]: 2.3
ECL signal/blank ratio [27]: 2.1
ECL signal/blank ratio [28]: 2.3
ECL signal/blank ratio [29]: 1.4
ECL signal/blank ratio [30]: 1.6
ECL signal/blank ratio [31]: 2.2
ECL signal/blank ratio [32]: 3.3

Fab VH3-23_IGHD2-21*01>3_IGHJ6*01 H100E/S108P V64A & V2-13_IGLJ2*01
ECL signal/blank ratio (read-out not given) [33]: 2.2
ECL signal/blank ratio (read-out not given) [34]: 1.2
ECL signal/blank ratio (read-out not given) [35]: 9.1
ECL signal/blank ratio (read-out not given) [36]: 30.6
ECL signal/blank ratio (read-out not given) [37]: 2.7
ECL signal/blank ratio (read-out not given) [38]: 3

Fab VH3-23_IGHD3-10*01>3_IGHJ6*01 Y112V & O12_IGKJ1*01
ECL signal/blank ratio [39]: 1
ECL signal/blank ratio [40]: 0.8
ECL signal/blank ratio [41]: 1.2
ECL signal/blank ratio [42]: 1.3
ECL signal/blank ratio [43]: 1.6
ECL signal/blank ratio [44]: 9.8
ECL signal/blank ratio [45]: 4.3
ECL signal/blank ratio [46]: 2
ECL signal/blank ratio [47]: 1.4

Fab VH1-46_IGHD6-13*01_IGHJ4*01 & A27_IGKJ1*01
ECL signal [48]: 2310
ECL signal [49]: 3360
ECL signal [50]: 11300

Fab VH3-23_IGHD3-10*01>3_IGHJ6*01 Y112A & O12_IGKJ1*01
ECL signal/blank ratio [26]: 1.4
ECL signal/blank ratio [28]: 0.8
ECL signal/blank ratio [51]: 1.3
ECL signal/blank ratio [29]: 1.1
ECL signal/blank ratio [30]: 1.6
ECL signal/blank ratio [31]: 1.2
ECL signal/blank ratio [32]: 1.1
